Earlier results on 2 substances are cited in patent US12678516B2, “Immunostimulatory toll-like receptor agonist-nanoparticle for cancer immunotherapy” (The Board of Trustees of the Leland Stanford Junior …, priority 2021, dated 2026).

Test in series [1]: not given
This is another data set of the same source.

Take “Tremelimumab: fully humanized CTLA4 antibody”: where the note is “10 mg/kg monthly vs 15 mg/kg every 3 months, phase II”, the “toxicity with more frequent dosing” value is on record as “doubled”. Also, the “sustained plasma levels in patients with the majority of responses” value (at one month) is greater than 30 µg/mL. Moreover, the “doses at which objective responses were evident” value (single antibody infusion, doses 0.01 to 15 mg/kg) is reported as no less than 3 mg/kg.

On to “ipilimumab: fully humanized CTLA4 antibody”, for which the “grade Ill/IV enterocolitis, share of patients” value in series [1] (10 mg/kg) is on record as ~ 15%. In series [1] (CTLA-4 blockade, patients), the “hepatitis (irAE)” value is on record as 5-10%, the “hypophysitis (irAE)” value was 5%, the “leucopenia (irAE)” value is listed as less than 2% and the “pancreatitis (irAE)” value was less than 2%. Moreover, in series [1] (CTLA-4 blockade, patients), the “rash/pruritus (irAE)” value is on record as greater than 50% and the “uveitis (irAE)” value was less than 2%.
